Reference: the supplement of paper PMC10724198
± gives the standard deviation of the averaged measurements.

System: Saccharomyces cerevisiae
Assay: protein stability index of tFT-peptide fusion (C-terminal peptide) (PSI (0-1 scale)); higher = more stable (slower turnover)
Settings: temperature: 30 C
Description: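 MPS profiling in S. cerevisiae of the yeast C-terminome library: the last 12 aa of each annotated ORF are fused to the C-terminus of a sfGFP-mCherry timer, after a GGGS linker. Cells are FACS-sorted into 8 mCherry/sfGFP bins and deep-sequenced. PSI runs from 0 (unstable) to 1 (stable); wild type and das1Δ backgrounds, two technical replicates each.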

[1] = genetic background: das1 deletion

| Sequence | protein stability index [1] | protein stability index (genetic background: wild type) |
| --- | --- | --- |
| EDHKVDGNKKED [VMA21 C-terminal 12 aa] | 0.68 ± 0.017 | 0.707 ± 0.011 |
| EDIKQALKQATN [CYS3 C-terminal 12 aa] | 0.6902 ± 0.0052 | 0.654 ± 0.023 |
| EEAREEFENIAL [SMI1 C-terminal 12 aa] | 0.679 ± 0.0096 | 0.645 ± 0.017 |
| EEARQEKSGQES [CRZ1 C-terminal 12 aa] | 0.678 ± 0.048 | 0.659 ± 0.011 |
| EECVKVQWESRT [TSR4 C-terminal 12 aa] | 0.681 ± 0.051 | 0.69407 ± 0.00052 |
| EEIRRENFRVIE [KTR7 C-terminal 12 aa] | 0.713 ± 0.012 | 0.677 ± 0.029 |
| EELQGNARALNN [SNN1 C-terminal 12 aa] | 0.6962 ± 0.0046 | 0.69 ± 0.019 |
| EGEYADNVEPLA [PRY1 C-terminal 12 aa] | 0.7124 ± 0.0048 | 0.685 ± 0.02 |
| EHIGAQNTGDGR [YER187W C-terminal 12 aa] | 0.6894 ± 0.0014 | 0.679 ± 0.033 |
| EHTILSDSDETH [RIM15 C-terminal 12 aa] | 0.71 ± 0.012 | 0.717 ± 0.022 |
| EIAADDTKKQEK [SOK2 C-terminal 12 aa] | 0.672 ± 0.027 | 0.684 ± 0.074 |
| EIIDNWEKYEQS [FAS1 C-terminal 12 aa] | 0.706 ± 0.011 | 0.7 ± 0.04 |
| EIKHVFTGVYGG [ASP1 C-terminal 12 aa] | 0.68 ± 0.006 | 0.686 ± 0.0042 |
| EKHSFSTTQQVV [NRT1 C-terminal 12 aa] | 0.666 ± 0.019 | 0.664 ± 0.028 |
| EKKKIFKGNKTD [YLR030W C-terminal 12 aa] | 0.696 ± 0.036 | 0.669 ± 0.012 |
| EKMKKNQSIGWF [MRPL25 C-terminal 12 aa] | 0.756 ± 0.02 | 0.73159 ± 0.00064 |
| EKSSVKRPCVKK [RKM4 C-terminal 12 aa] | 0.674 ± 0.02 | 0.701 ± 0.0034 |

| Sequence | protein stability index [1] | protein stability index (genetic background: wild type) |
| --- | --- | --- |
| EKTVNFIKTFGV [GUT2 C-terminal 12 aa] | 0.6956 ± 0.0026 | 0.71 ± 0.035 |
| ELKEGRTFLGRS [APQ13 C-terminal 12 aa] | 0.703 ± 0.014 | 0.695 ± 0.028 |
| ELSDLENKLGKK [RCF1 C-terminal 12 aa] | 0.6843 ± 0.0062 | 0.6991 ± 0.0033 |
| ELSNNLNVDEFV [LRS4 C-terminal 12 aa] | 0.692 ± 0.0034 | 0.687 ± 0.034 |
| ELTDFKYPSNYE [PUT2 C-terminal 12 aa] | 0.6787 ± 0.0024 | 0.711 ± 0.066 |
| EMRKRFFEKDLL [RAP1 C-terminal 12 aa] | 0.696 ± 0.022 | 0.723 ± 0.059 |
| ENIEVILSNGRM [SNF12 C-terminal 12 aa] | 0.676 ± 0.03 | 0.689 ± 0.037 |
| ENKLWNTEYFFC [ECM34 C-terminal 12 aa] | 0.738 ± 0.018 | 0.6655 ± 0.0018 |
| ENLENKINNLSK [STF1 C-terminal 12 aa] | 0.709 ± 0.025 | 0.698 ± 0.034 |
| ENNDNDDNDGLF [CTR9 C-terminal 12 aa] | 0.707 ± 0.037 | 0.701 ± 0.048 |
| ENNEKFLNIRLY [CDC24 C-terminal 12 aa] | 0.71 ± 0.026 | 0.668 ± 0.013 |
| ENVLNKEGVLQK [GIN4 C-terminal 12 aa] | 0.682 ± 0.012 | 0.734 ± 0.047 |
| EPAYDGASVEQQ [THR1 C-terminal 12 aa] | 0.688 ± 0.0074 | 0.6724 ± 0.0055 |
| EPEAEQAVEDTA [HSP30 C-terminal 12 aa] | 0.685 ± 0.018 | 0.6594 ± 0.0041 |
| EPRYNDDAQVSD [KCS1 C-terminal 12 aa] | 0.684 ± 0.018 | 0.663 ± 0.064 |
| EREGGDEHDDMA [PWP1 C-terminal 12 aa] | 0.684 ± 0.015 | 0.708 ± 0.035 |
| ERRLNAIINGEV [YTH1 C-terminal 12 aa] | 0.689 ± 0.024 | 0.685 ± 0.034 |
